# Results: the RNAGym collection of RNA variant scans (doi:10.1093/nar/gkz1192)
# B1: CPEB3 Ribozyme (parent)
# chain: UAACAGGGGGCCACAGCAGAAGCGUUCACGUCGCAGCCCCUGUCAGAUUCUGGUGAAUCUGCGAAUUCUGCUGUAUAUCUC
# Variants of: B1
# Test: self-cleavage, relative activity (ratio to wild type); higher = more cleavage; in vitro, sequencing
# Outline: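 Relative activity was defined as the cleaved/total read fraction for a variant divided by the same fraction for the unmutated ribozyme. CPEB3 self-cleaving ribozyme libraries were made by rounds of error-prone PCR, barcoded, and transcribed in vitro with T7 RNA polymerase for 5 hours at 37°C, and cleavage ran through transcription plus a 15 min DNase I step before EDTA. Illumina sequencing of template-switched reverse transcripts gave the reads, and DNA sequencing mapped the barcodes. Averages come from three batches, using variants with at least 5 reads.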
row,Variant,self-cleavage
1,UAACAGGGGGUCACAGCAGAAGCGUUCACGUCGCAGCCCCUGUCAGAUUCUGGUGAAUCUGCGAAUUAUGCUGUAUAUCUC,0.11
2,UAACAGGGGGUCACAGCCGAAGCGUUCACGUCGCAGCCCCUGUCAGAUUCUGGUGAAUCUGCGAAUUCUGCUGUAUAUCUC,0.39
3,UAACAGGGGGUCACAGCGGAAGCGUUCACGUCGCAGCCCCUGUCAGAUUCUGGUGAAUCUGCGAAUUCUGCUGUAUAUCUC,0.31
4,UAACAGGGGGUCACAGCUGAAGCGUUCACGUCGCAGCCCCUGUCAGAUUCUGGUGAAUCUGCGAAUUCUGCUGUAUAUCUC,0.24
5,UAACAGGGGGUCACAGCAGAAGCGUUCACGUCGCAGCCCCUGUCAGAUUCUGGUGAAUCUGCGAAUUCUGCUAUAUAUCUC,1.25
6,UAACAGGGGGUCAAAGCAGAAGCGUUCACGUCGCAGCCCCUGUCAGAUUCUGGUGAAUCUGCGAAUUCUGCUGUAUAUCUC,0.93
7,UAACAGGGGGUCACAGCAGAAGCGUUCACGUCGCAGCCCCUGUCAGAUUCUGGUGAAUCUGCGGAUUCUGCUGUAUAUCUC,0.34
8,UAACAGGGGGUCACAGCAGAAGCGUUCACGUCGCAGCCCCUGUCAGAUUCUGGUGAAUCUGCAAAUUCUGCUGUAUAUCUC,0.24
9,UAACAGGGGGUCACAGCAGAAGCGUUCACGUCGCAGCCCCUGUCAGAUUUUGGUGAAUCUGCGAAUUCUGCUGUAUAUCUC,0.4
10,UAACAGGGGGUCACAGCAGAAGCGUUCACGUCGCAGCCCCUGUCAGAUUCUGCUGAAUCUGCGAAUUCUGCUGUAUAUCUC,0.4
11,UAACAGGGGGUCACAGCAGAAGCGUUCACGUCGCAGCCCCUGUCAGAUUCUGUUGAAUCUGCGAAUUCUGCUGUAUAUCUC,0.43
12,UAACAGGGGGUCACAGCAGAAGCGUUCUCGUCGCAGCCCCUGUCAGAUUCUGGUGAAUCUGCGAAUUCUGCUGUAUAUCUC,0.34
13,UAACAGGGGGUCACAGCAGAAGCGUUCACGUCGCAGCCCCUGUCAGAUUCUGGUGAAUCUGCGAAUUCUGCUGUUUAUCUC,0.43
14,UAACAGGGGGUCACAGCAGAAGCGUUCACGUCGCAGCCCCUGUCAGAUUCUGGUGAAUCUGCGAAUUCUGCUGUGUAUCUC,0.32
15,UAACAGGGGGUCACAGCAGAAGCGUUCACGUCGCAGCCCCUGUCAGAUUCUGGUGGAUCUGCGAAUUCUGCUGUAUAUCUC,0.32
16,UAACAGGGGGUCACAGCAGAAGCGUUCACGUCGCAGCCCCUGUCAGAUUCUGGUGUAUCUGCGAAUUCUGCUGUAUAUCUC,0.33
17,UAACAGGGGGUCACAGCAGAAGCGUUCACGUCGCAGCACCUGUCAGAUUCUGGUGAAUCUGCGAAUUCUGCUGUAUAUCUC,0.06
18,UAACAGGGGGUCACAGCAGAAGCGUUCACGUCGCAGCCCCUGUCAGAUCCUGGUGAAUCUGCGAAUUCUGCUGUAUAUCUC,0.24
19,UAACAGGGGGUCACAGCAGAAGCGUUCACGUCGCAGCCCCUGUCAGAUACUGGUGAAUCUGCGAAUUCUGCUGUAUAUCUC,0.32
20,UAACAGGGGGUCACAGCAGAAGCGUUCACGUCGCAGCCCCUGUCAGAUUCUGGUGAAUCUGCGAAUUCUGCUGUAUUUCUC,0.47
21,UAACAGGGGGUCACAGCAGAAGCGUUCACGUCGCAGCCCCUGUCAGAUUCUGGUGAAUCUGCGAAUUCUGCUGUAUGUCUC,0.41
22,UAACAGGGGGUCACAGCAGAAGCGUUCACGUCGCAGCCCCUGUCAGAUUCUAGUGAAUCUGCGAAUUCUGCUGUAUAUCUC,0.62
23,UAACAGGGGGUCACAGCAGAAGCGUUCACGUCGCAGCCCCUGUCAGAUUCUGGUGAAUCUGUGAAUUCUGCUGUAUAUCUC,0.11

row,Variant,self-cleavage
1,UAACAGGGGGUCACAGCAGAAGCGUCCACGUCGCAGCCCCUGUCAGAUUCUGGUGAAUCUGCGAAUUCUGCUGUAUAUCUC,0.31
2,UAACAGGGGGUCACAGCAGAAGCGUACACGUCGCAGCCCCUGUCAGAUUCUGGUGAAUCUGCGAAUUCUGCUGUAUAUCUC,0.36
3,UAACAGGGGGUCACAGCAGAAGCAUUCACGUCGCAGCCCCUGUCAGAUUCUGGUGAAUCUGCGAAUUCUGCUGUAUAUCUC,0.22
4,UAACAGGGGGUCACAGCAGAAGCGUUCACGUCGCAGCCCCUGUCAGAAUCUGGUGAAUCUGCGAAUUCUGCUGUAUAUCUC,0.24
5,UAACAGGGGGUCACAGCAGAAGCGUUCACGUCGCAGCCCCUGUCAGACUCUGGUGAAUCUGCGAAUUCUGCUGUAUAUCUC,0.31
6,UAACAGGGGGUCACAGCAGAAGCGUUCACGUCGCAGCCCCUGUCAGUUUCUGGUGAAUCUGCGAAUUCUGCUGUAUAUCUC,0.31
7,UAACAGGGGGUCACAGCAGAAGCGUUCACGUCGCAGCCCCUGUCAGGUUCUGGUGAAUCUGCGAAUUCUGCUGUAUAUCUC,0.36
8,UAACAGGGGGUCACAGCAGUAGCGUUCACGUCGCAGCCCCUGUCAGAUUCUGGUGAAUCUGCGAAUUCUGCUGUAUAUCUC,0.28
9,UAACAGGGGGUCACAGCAGGAGCGUUCACGUCGCAGCCCCUGUCAGAUUCUGGUGAAUCUGCGAAUUCUGCUGUAUAUCUC,0.43
10,UAACAGGGGGUCACAGCAGAAGCGUUCACGUAGCAGCCCCUGUCAGAUUCUGGUGAAUCUGCGAAUUCUGCUGUAUAUCUC,0.2
11,UAACAGGGGGUUACAGCAGAAGCGUUCACGUCGCAGCCCCUGUCAGAUUCUGGUGAAUCUGCGAAUUCUGCUGUAUAUCUC,0.56
12,UAACAGGGGGUCACAGCAGAAGCGUUCACGUCGCAGCCCCUGUCAGAUUCUGGUGAAUCUCCGAAUUCUGCUGUAUAUCUC,0.11
13,UAACAGGGGGUCGCAGCAGAAGCGUUCACGUCGCAGCCCCUGUCAGAUUCUGGUGAAUCUGCGAAUUCUGCUGUAUAUCUC,0.43
14,UAACAGGGGGUCUCAGCAGAAGCGUUCACGUCGCAGCCCCUGUCAGAUUCUGGUGAAUCUGCGAAUUCUGCUGUAUAUCUC,0.49
15,UAACAGGGGGUCCCAGCAGAAGCGUUCACGUCGCAGCCCCUGUCAGAUUCUGGUGAAUCUGCGAAUUCUGCUGUAUAUCUC,0.09
16,UAACAGGGGGUCACAGCAGAAGCGUUCACGUCGCAGCCCCUGUCAGAUUCUGGUGAGUCUGCGAAUUCUGCUGUAUAUCUC,0.33
17,UAACAGGGGGUCACAGCAGAAGCGUUCACGUCGCAGCCCCUAUCAGAUUCUGGUGAAUCUGCGAAUUCUGCUGUAUAUCUC,0
18,UAACAGGGGGUCACAGCAGAAGCGUUCACGUCACAGCCCCUGUCAGAUUCUGGUGAAUCUGCGAAUUCUGCUGUAUAUCUC,0.42
19,UAACAGGGGGUCACAGCAGAAGCGUUCACGUCUCAGCCCCUGUCAGAUUCUGGUGAAUCUGCGAAUUCUGCUGUAUAUCUC,0.19
20,UAACAGGGGGUCACAGCAGAAGCGUUCACGUCCCAGCCCCUGUCAGAUUCUGGUGAAUCUGCGAAUUCUGCUGUAUAUCUC,0.14
21,UAACAGGGGGUCACAGCAGAAGCGUUCACGUCGCAGCCCCUGCCAGAUUCUGGUGAAUCUGCGAAUUCUGCUGUAUAUCUC,0.35
22,UAACAGGGGGUCACAGCAGAAGCGUUCACGUCGCAGCCCCUGACAGAUUCUGGUGAAUCUGCGAAUUCUGCUGUAUAUCUC,0.68
23,UAACAGGGGGUCACAGCAGAAGCGAUCACGUCGCAGCCCCUGUCAGAUUCUGGUGAAUCUGCGAAUUCUGCUGUAUAUCUC,0.38

row,Variant,self-cleavage
1,UAACAGGGGGUCACAGCAGAAGCGCUCACGUCGCAGCCCCUGUCAGAUUCUGGUGAAUCUGCGAAUUCUGCUGUAUAUCUC,0.22
2,UAACAGGGGGUCACAGCAUAAGCGUUCACGUCGCAGCCCCUGUCAGAUUCUGGUGAAUCUGCGAAUUCUGCUGUAUAUCUC,0.07
3,UAACAGGGGGUCACAGCAGAAGUGUUCACGUCGCAGCCCCUGUCAGAUUCUGGUGAAUCUGCGAAUUCUGCUGUAUAUCUC,0.24
4,UAACAGGGGGUCACAGCAGAAGCGUUCACGUCGCUGCCCCUGUCAGAUUCUGGUGAAUCUGCGAAUUCUGCUGUAUAUCUC,0.33
5,UAACAGGGGGUCACAGCAGAAGCGUUCACGUCGCGGCCCCUGUCAGAUUCUGGUGAAUCUGCGAAUUCUGCUGUAUAUCUC,1.27
6,UAACAGGGGGUCACAGCAGAAGCGUUCACGUCGCAGCCCCCGUCAGAUUCUGGUGAAUCUGCGAAUUCUGCUGUAUAUCUC,0.51
7,UAACAGGGGGUCACAGCAGAAGCGUUCACGUCGCAGCCCCAGUCAGAUUCUGGUGAAUCUGCGAAUUCUGCUGUAUAUCUC,0.3
8,UAACAGGGGGUCACAGCAGAAGCGUUCACGUCGCAGCCCCUGUCUGAUUCUGGUGAAUCUGCGAAUUCUGCUGUAUAUCUC,0.27
9,UAACAGGGGGUCACAGCAGAAGCGUUCACGUCGCAGCCCCUGUCGGAUUCUGGUGAAUCUGCGAAUUCUGCUGUAUAUCUC,0.2
10,UAACAGGGGGUCACAGCAGAAGCGUUCACGUCGCAGCCCCUGUCAGAUUCAGGUGAAUCUGCGAAUUCUGCUGUAUAUCUC,0.42
11,UAACAGGGGGUCACAGCAGAAGCGUUCACGUCGCAGCCCCUGUCAGAUUCGGGUGAAUCUGCGAAUUCUGCUGUAUAUCUC,0.35
12,UAACAGGGGGUCACAGCAGAAGCGUUCACGUCGCAGCCCCUGUCAGAUUCCGGUGAAUCUGCGAAUUCUGCUGUAUAUCUC,0.44
13,UAACAGGGGGUCACAGCAGAAGCGUUCACGUCGCAGCCCUUGUCAGAUUCUGGUGAAUCUGCGAAUUCUGCUGUAUAUCUC,0.27
14,UAACAGGGGGUCACAGCAGAGGCGUUCACGUCGCAGCCCCUGUCAGAUUCUGGUGAAUCUGCGAAUUCUGCUGUAUAUCUC,0.28
15,UAACAGGGGGUCACAGCAGAAGCGUUCACGGCGCAGCCCCUGUCAGAUUCUGGUGAAUCUGCGAAUUCUGCUGUAUAUCUC,0.23
16,UAACAGGGGGUCACAGCAGAAGCGUUCACGACGCAGCCCCUGUCAGAUUCUGGUGAAUCUGCGAAUUCUGCUGUAUAUCUC,0.32
17,UAACAGGGGGUCACAGCAGAAGCGUUCACGCCGCAGCCCCUGUCAGAUUCUGGUGAAUCUGCGAAUUCUGCUGUAUAUCUC,0.29
18,UAACAGGGGGUCACAGCAGAAGCGUUCACGUCGCAGCCCCUGUCAGAUUCUGGUGAAUCUGCGAUUUCUGCUGUAUAUCUC,0.33
19,UAACAGGGGGUCACAGCAGAAGCGUUCACGUCGCAGCCCCUGUCAGAUUCUGGUGAAUCUGCGAGUUCUGCUGUAUAUCUC,0.2
20,UAACAGGGGGUCACCGCAGAAGCGUUCACGUCGCAGCCCCUGUCAGAUUCUGGUGAAUCUGCGAAUUCUGCUGUAUAUCUC,0.5
21,UAACAGGGGGUCACGGCAGAAGCGUUCACGUCGCAGCCCCUGUCAGAUUCUGGUGAAUCUGCGAAUUCUGCUGUAUAUCUC,0.4
22,UAACAGGGGGUCACUGCAGAAGCGUUCACGUCGCAGCCCCUGUCAGAUUCUGGUGAAUCUGCGAAUUCUGCUGUAUAUCUC,0.35
